Reference: US20160228506A1, “Compositions and Formulations for Prevention and Reduction of Tumorigenesis, Cancer Cell Proliferation and Invasion, and Methods of Production and Use Thereof in Cancer Treatment” (PRONUTRIA, INC., priority 2013, published 2016)

B1: SEQID-00518: protein of the 168 nutritive polypeptide library (protein, listed as Lactobacillus acidophilus)
chain: MTKGILGRKVGMTQIFTKDGVLVPVTVVEATPNVVMQVKTVESDGYEAVQLGYQDKREVLSNKPEKGHADKAKTSPKRFIREIRGVELKDYEVGSEVTVDTFKEGDVVNVTGTSRGHGYQGNIKRWGQSRGPETHGSRYHRIPGSMGSIINRVPKGKRLPGHMGVKKVTIENLVIEKVVADKNVLMIKGNVPGAKNSLIVVKTASKAVKADK
modifications: source: /note="strain 30SC"
notes: protein of the 168 nutritive polypeptide library
B2: SEQID-00520: protein of the 168 nutritive polypeptide library (protein, listed as Gallus gallus)
chain: MSDEEKKRRAATARRQHLKSAMLQLAVTEIEKEAAAKEVEKQNYLAEHCPPLSLPGSMQELQELCKKLHAKIDSVDEERYDTEVKLQKTNKELEDLSQKLFDLRGKFKRPPLRRVRMSADAMLRALLGSKHKVNMDLRANLKQVKKEDTEKEKDLRDVGDWRKNIEEKSGMEGRKKMFEAGES
B3: SEQID-00521: protein of the 168 nutritive polypeptide library (protein, listed as Arthrospira platensis)
chain: MQDAITSVINSSDVQGKYLDASAIQKLKAYFATGELRVRAATTISANAANIVKEAVAKSLLYSDITRPGGNMYTTRRYAACIRDLDYYLRYATYAMLAGDPSILDERVLNGLKETYNSLGVPIGATVQAIQAMKEVTAGLVGADAGKEMGIYFDYICSGLS
B4: SEQID-00524: protein of the 168 nutritive polypeptide library (protein)
chain: MPAWYSIDSRVRGTSLVVKGLKENVEYHFRVSAENQFGISKPMKSEEPVIPKTPLSKASSNHNTVNFLS
modifications: Ovis aries
notes: as for B1
B5: SEQID-00525: protein of the 168 nutritive polypeptide library (protein, listed as Saccharomyces cerevisiae)
chain: MTKNFIVTLKKNTPDVEAKKFLDSVHHAGGSIVHEFDIIKGYTIKVPDVLHLNKLKEKHNDVIENVEEDKEVHT
modifications: source: /note="strain ATCC 204508 / S288c"
notes: as for B1
B6: SEQID-00528: protein of the 168 nutritive polypeptide library (protein, listed as Saccharomyces cerevisiae)
chain: MVLVQDLLHPTAASEARKHKLKTLVQGPRSYFLDVKCPGCLNITTVFSHAQTAVTCESCSTVLCTPTGGKAKLSEGTSFRRK
modifications: source: /note="strain ATCC 204508 / S288c"
notes: as for B1
B7: SEQID-00529: protein of the 168 nutritive polypeptide library (protein)
chain: MLGYISAGKMGSSPSGARFFKYEVVGMRQNDETDKTEYQIRSSGSQFVIVPYNRMNQEMRRINRMGGKIVSIEPMTTDNTVSEAEGE
modifications: Arthrospira platensis Sp-1
notes: as for B1
B8: SEQID-00532: protein of the 168 nutritive polypeptide library (protein)
chain: MSIAVGMIETIGFPAVVEAADSMVKAARVTLVGYEKIGSGRVTVIVRGDVSEVQASVSAGIESVKRVNGGEVSSTHIIARPHENLEYVLPIRYTDAVEQFRSY
modifications: Arthrospira platensis NIES-39
notes: as for B1
B9: SEQID-00533: protein of the 168 nutritive polypeptide library (protein)
chain: MVTEFQTRDLADVIRRPIVTEKATIQMELNQFTFDVDPRADKPTIKAAVELLFPVKVLSVNTQNPPRRQRRVGRFVGYKPRYKRAIVTLEDGEALRKVLFPEV
modifications: Arthrospira platensis NIES-39
notes: as for B1
B10: SEQID-00534: protein of the 168 nutritive polypeptide library (protein)
chain: MSIYVGNLSYEVTEDDLTAVFAEYGSVKRVKLPTDRETGRMRGFGFVEMDTEAEEQSAIDALDGAEWCGRDLRVNKAKPRENSGSFGGGGGGRRGGGGYSRRS
modifications: Arthrospira platensis NIES-39
notes: as for B1
B11: SEQID-00536: protein of the 168 nutritive polypeptide library (protein, listed as Solanum lycopersicum)
chain: MEEEKHHHHHLFHHKDKAEEGPVDYEKEIKHHKHLEQIGKLGTVAAGAYALHEKHEAKKDPEHAHKHKIEEEIAAAAAVGAGGFAFHEHHEKKDAKKEEKKAEGGHHHLF
B12: SEQID-00540: protein of the 168 nutritive polypeptide library (protein)
chain: MARIAGVDLPRDKRVEIGLTYIYGIGLSRSKEILAETGVNPDTRVKDLTDADVAALRSVIQTNYQVEGDLRRLEAMSIKRLMDIGTYRGRRHRMGLPVRGQRTRTNARTRRGVRRTVAGKKKAASKK
modifications: Arthrospira platensis C1
notes: as for B1
B13: SEQID-00541: protein of the 168 nutritive polypeptide library (protein, listed as Agaricus bisporus)
chain: MVRISVLNDCLKSICNASRRGKRQVIVRPSSKVVVKFLSVMQRHGYIGEFEIIDDHRGGKIIVQLNGRLNKTGVISPRFNVQHNRIEQWINYLLPSRGIGIIVLTTSSGILDHEEARRKNVGGKLLGYVY
modifications: source: /note="var. bisporus"; source: /note="strain H97 / ATCC MYA-4626 / FGSC 10389"
notes: as for B1
B14: SEQID-00544: protein of the 168 nutritive polypeptide library (protein, listed as Gadus morhua)
chain: MGTRLHQTNTMKFAALALALLLAVGSHAAAMQSDAPSQLAHIRSAVGMYLDQVKDSAARSLDHLDGTEYESYKAQLATSLDSLQASIKTAQAGAEPYTDAAVAQVMEATTEVRASIMADIETLRTGPGPKREALKKVVDGHI
B15: SEQID-00545: protein of the 168 nutritive polypeptide library (protein, listed as Saccharomyces cerevisiae)
chain: MLSRAIFRNPVINRTLLRARPGAYHATRLTKNTFIQSRKYSDAHDEETFEEFTARYEKEFDEAYDLFEVQRVLNNCFSYDLVPAPAVIEKALRAARRVNDLPTAIRVFEALKYKVENEDQYKAYLDELKDVRQELGVPLKEELFPSSS
modifications: source: /note="strain ATCC 204508 / S288c"
notes: as for B1
B16: SEQID-00552: protein of the 168 nutritive polypeptide library (protein, listed as Saccharomyces cerevisiae)
chain: MSNMMNKFAEKLQGNDDSHQKGKNAKSSNKERDDMNMDMGMGHDQSEGGMKMGHDQSGTKMNAGRGIANDWKTYENMKK
modifications: source: /note="strain ATCC 204508 / S288c"
notes: as for B1
B17: SEQID-00555: protein of the 168 nutritive polypeptide library (protein)
chain: MQAQEIIRAIEQEEIESVKTNVQKESIPKIYVGDTVKVGVRITEGGKERIQPYQGTVIAMRNGGINETITVRRIFQGVGVERVFLLHSPRIASIKVIMRGKVRRAKLYYLRDRVGKATRVPQRFDRPL
modifications: Arthrospira platensis NIES-39
notes: as for B1
B18: SEQID-00562: protein of the 168 nutritive polypeptide library (protein, listed as Lactobacillus acidophilus)
chain: MKKFASFVLGAVAGCAAGFLAGSLLVSDEQVDDVKNKIKDNDKLQDLKKKYDNGTEIVKNQLASFPKNVEDDSELKDFDDIVIDDSNKDDDVTAGDNAQESVDDLNNAEEEHNAEDAEEDKPEA
modifications: source: /note="strain 30SC"
notes: as for B1
B19: SEQID-00564: protein of the 168 nutritive polypeptide library (protein)
chain: MAPKAEKKPAAKKPAEEEPAAPAEKAPAGKKPDLIKRLPAGKSAGKEGGVDKKGRKKAKKSVETYKIYIFKVLKQVHPDIGISSKAMSIMNSFINDIFEKLAGEAAKLARYNKKPTITSREIQTSVRLVLPGELAKHAVSEGTKAVTKFTSS
modifications: Zea mays
notes: as for B1

Experiment: SGF digest of 168 nutritive polypeptide library, intact protein by LC-MS/MS
Assay type: in vitro ADME
Settings: 168 nutritive polypeptide library SGF digest, LC-MS/MS spectral counts
Protocol: The in vitro intact half-life of multiple polypeptides in a complex mixture was determined using the simulated gastric in vitro digestion described above. Briefly, the 168 nutritive polypeptide library was generated as described herein by cloning, transforming, and expressing a gene library encoding 168 proteins as a single mixture. The recombinantly expressed proteins were purified from host cell proteins by IMAC purification as described herein.
The 168 Protein Library was treated with SGF as described above and the t=0 and t=10 min samples were analyzed for intact protein by LC-MS/MS. To begin, 10 μg of sample was loaded onto a 10% SDS-PAGE gel (Invitrogen) and run approximately 5 cm into the gel. The gel was excised into ten fractions from 100 kD to the dye front and the gel slices were processed by washing with 25 mM ammonium bicarbonate, followed by acetonitrile. Gel fractions were then reduced with 10 mM dithiothreitol at 60° C., followed by alkylation with 50 mM iodoacetamide at room temperature. Finally, the samples were digested with trypsin (Promega) at 37° C. for 4 h and the digestions were quenched with the addition of formic acid. The samples were then analyzed by nano LC/MS/MS using an EasynLC 1000 HPLC system interfaced to a ThermoFisher Q Exactive. Peptides were loaded on a trapping column and eluted over a 75 μm analytical column at 350 nL/min; both columns were packed with PepMap C18 3 μm resin (ThemoFisher). A 1 hour gradient was employed. The mass spectrometer was operated in data-dependent mode, with MS and MS/MS performed in the Orbitrap at 70,000 FWHM resolution and 17,500 FWHM resolution, respectively. The fifteen most abundant ions were selected for MS/MS. Data were searched against an appropriate database using Mascot to identify peptides. Mascot DAT files were parsed into the Scaffold software for validation, filtering and to create a nonredundant list per sample. Data were filtered at 1% protein and peptide false discovery rate (FDR) and requiring at least two unique peptides per protein. A full list of detected proteins and their spectral counts (SpC) was generated and reported as a function of each collected gel fraction. SpC are a count of the number of spectra identified for a given protein and are used as a measure of relative protein abundance (Liu, H. et al., Analytical Chemistry 2004, 76: 4193-4201). To calculate the percentage of intact protein remaining at the 10 min time point of the SGF digest the number of SpC representative of intact peptide in the t=10 min sample were divided by the number of SpC representative of intact peptide in the t=0 min sample. The number of SpC representative of intact peptide was defined as the sum of the SpC in the fraction with the highest number of SpC assigned to that protein in the t=0 min sample and the two flanking fractions.

Row | Molecule | % Intact Protein at 10 min [%]
1 | B1 | 0
2 | B2 | 0
3 | B3 | 11.5
4 | B4 | 0
5 | B5 | 13.7
6 | B6 | 11.8
7 | B7 | 0
8 | B8 | 0
9 | B9 | 19
10 | B10 | 0
11 | B11 | 11.8
12 | B12 | 0
13 | B13 | 0
14 | B14 | 0
15 | B15 | 0
16 | B16 | 79
17 | B17 | 6.8
18 | B18 | 0
19 | B19 | 89.6
